Reference: the supplement of paper PMC12042874
± gives the uncertainty stated by the source.

Assay: amyloid nucleation score (Sup35N fusion, yeast selection) (log enrichment); library NNK3; higher = more nucleation; inactive = no reads after selection
Summary of the method: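 For the nucleation score, DiMSum gave the log enrichment of output over input reads, centred on the mode score of non-aggregating sequences. Psi-negative yeast expressing Sup35N fused to peptides of 20 random codons were induced with 100 μM copper sulfate for 24 hours and grown 7 days at 30°C on medium lacking adenine and uracil. Input and output plasmid inserts were Illumina-sequenced, and sequences with under 100 input reads were excluded.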

Amyloid nucleation score, 1.21 ± 0.11:
NMLCTSL

Amyloid nucleation score, 2.59 ± 0.074:
NGFMDNCAVSCRTIIVVSYR

Amyloid nucleation score, 1.25 ± 0.15:
NDKYWTIHMTSLGQRLIFAE

Amyloid nucleation score, 1.44 ± 0.1:
NLCRVMMFSFFTLLV

Amyloid nucleation score, -0.703 ± 1.9:
NLDYLVNLLCDYLES

Amyloid nucleation score, 0.749 ± 0.11:
NIVISYPP

Amyloid nucleation score, -0.114 ± 0.44:
NDLSGKTCNGRRVEDRAPMA

Amyloid nucleation score, -0.406 ± 0.8:
NLVAMVYSLLSSNWKEVISK

Amyloid nucleation score, 2.54 ± 0.067:
NFLNCVFRYIYD

Amyloid nucleation score, 1.67 ± 0.12:
NFTVFYLRC

Amyloid nucleation score, 0.815 ± 0.12:
NLLRNAVFIYCKHLNLFDAM

Amyloid nucleation score, -0.805 ± 1.1:
NIMYLIWWILGKRHVCNPWE

Amyloid nucleation score, 2.36 ± 0.049:
NIYYLCSFLSWLTMG

Amyloid nucleation score, -0.245 ± 0.99:
NLGRFLFSICCASLFAGCNG

Amyloid nucleation score, 2.24 ± 0.093:
NEVETESCIELTFPMQYWQV

Amyloid nucleation score, 0.491 ± 0.15:
NKVTLGYMFITSLVRTSS

Amyloid nucleation score, -0.022 ± 0.59:
NCSGQTGFGPVMSYWTIDVR

Amyloid nucleation score, 1.95 ± 0.098:
NFSIYYLDLISR

Amyloid nucleation score, 0.478 ± 0.25:
NLRWV

Amyloid nucleation score, 1.5 ± 0.14:
NCMFWGCVTLRADFVRTINR

Amyloid nucleation score, -0.302 ± 0.96:
NINIY

Amyloid nucleation score, 1.96 ± 0.065:
NITFISSWIMQEYTFVLCSF

Amyloid nucleation score, -0.974 ± 1.7:
NCRVCCRYVNSSPDV

Amyloid nucleation score, inactive:
NCDNSNGYSTHEIEDRSTLR, NCTFAGLAMFGNILN, NCTNFALVSNLASTRTIADW, NDASYDLRRWWCKTAPGLSG, NDCLFNKILAVRSFTLLAGK, NDFLCI, NDGPKVARMGSVR, NDNSSATRSHSGLATRGGLV, NDTWCVLFRTPKLLCMSVFT, NDVSRNLSMFNY, NDWREANLF, NFFITTDPPGFR, NFIYILLSIINYWWCTYIVY, NFLRCVHFLKFFMDFNGTSG, NFLVSIHVFFYCWLSMFTYW, NFNCSANWYHLSLLTMNHEV, NFRFPTNGNYGNYLKKESFV, NFRVLVVNVKTFLMVVKVMF, NFSFELMKDHYIGLQMVV, NFSMMPTMLRRVWIGMCSSM, NFTGSCVPVIRQMASCFSSF, NFVQFSTTISFDHNCHMVGC, NFVRGTGFVGRLESLNWKV, NFYRCGVWHLNWYEYDVLRL, NFYRFNIVRNNVLM, NGSVSVKSLIFLDDCCSSWA, NGTALLKVTLAQYVGIVTLF, NGWLVMLYIKLTGFFP, NHLMTFLVWWLMIALLPHLD, NHLVGLNMSISMCDSLNSVF, NHMCSVYRWQSLERVVCKGI, NHNIHVNGFHFN, NHRSG, NHVILKNFFLMLQCYNFTTM, NIIEPFKWTTTSLYNSDFYF, NIIYRVGSQYSL, NKDWREVCSKLNLGSCPTPE, NKFMIGVRMASGTL, NKPCYLSSFPQCDHFFVWTD, NKRGNCVEKDDCFVMYEWNM, NKSLWGC, NKSWWKYVPIDDGELYMRAV, NKTDCETC, NKWLDRNKG, NLFYDFFDYMVSRARGGRVC, NLGNVHVLLDQSEPVHCILL, NLPRKGSGWDIHDRRHPWRS, NLSGIHIFLVSRLEWVLDNL, NLSLLSLVSFEVEVIQCTMR, NLSRRIWTHYHTQVNLIGID, NLSSNVLTAALK, NLSTFQIYDR, NLWYLVMLISDFCEPRKEWY, NMFRRPTVCTVQEQVTEMRV, NMGWSSSYH

Amyloid nucleation score, 2.29 ± 0.056:
NLTFYMYIELVDLRGNAE

Amyloid nucleation score, 1.44 ± 0.11:
NIDNMSMVRILFNT

Amyloid nucleation score, -0.809 ± 1.1:
NLLPRCKLIDSWWSSHRLWV
